Laboratory results published in patent publication US20140037648A1.
pKd: −log10 of the molar value.

Tests used:
[1] = molecular target: F protein of RSV 9847/2009 (B, Pavia IT, 2009; B/9847/09) (RSV (9847/2009)); test: cell-based or functional assay
[2] = molecular target: F protein of RSV Randall (A, Chicago US, 1958; A/Randall/58) (RSV (strain Randall)); test: cell-based or functional assay
[3] = molecular target: F protein of RSV 9727/2009 (B, Pavia IT, 2009; B/9727/09) (RSV (9727/2009)); test: cell-based or functional assay
[4] = molecular target: F protein of RSV A/9835/09 (RSV (A/9835/09)); test: cell-based or functional assay
[5] = molecular target: F protein of RSV A/9846/09 (RSV (A/9846/09)); test: cell-based or functional assay
[6] = molecular target: F protein of RSV 9736/2009 (B, Pavia IT, 2009; B/9736/09) (RSV (9736/2009)); test: cell-based or functional assay
[7] = molecular target: F protein of MPV I-PV-03/01-6621 (A1, Pavia IT, 2001; A1/6621/01) (MPV (I-PV-03/01-6621)); test: cell-based or functional assay
[8] = molecular target: stabilized form of the full-length pre-fusion RSV F protein (RSV); test: surface plasmon resonance

With Palivizumab (antibody) the Neutralization IC50 [1] was 0.209 µg/mL, the Neutralization IC50 [2] was 0.44 µg/mL and the Neutralization IC50 [3] was 0.275 µg/mL. It also gave a Neutralization IC50 [4] of 0.284 µg/mL, a Neutralization IC50 [5] of 0.283 µg/mL and a Neutralization IC50 [6] of 0.092 µg/mL. The IC50 (ng/ml), microneutralization [7] was greater than 20000 ng/mL and the pKd [8] was 8.70.
